Experimental data from patent US20180036441A1 (Dana-Farber, published 2018).

T1: MUC1-SEA-His protein (UniProt P15941 1039-1148, limits assumed)
T1 construct: domain: SEA; Recombinant antigen used for ELISA coating and as Biacore analyte; also called MUC-SEA-His; antigen protein; not shown: His tag
T1 sequence (looked up): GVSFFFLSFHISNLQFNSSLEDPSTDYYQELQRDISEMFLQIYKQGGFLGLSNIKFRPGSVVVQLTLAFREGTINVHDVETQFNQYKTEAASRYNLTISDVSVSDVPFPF


target: T1, MUC1-SEA-His protein; assay: SPR Biacore T200, antibody captured, antigen as analyte
Experimental: Antibody affinity was determined using a Surface Plasmon Resonance (SPR) biosensor, Biacore T200 (GE Healthcare). Antibody was immobilized on the sensor chip through Fc capture method. Antigen protein was used as the analyte. The data of dissociation (kd) and association (ka) rate constants were obtained using Biacore T200 evaluation software. The apparent equilibrium dissociation constants (KD) were calculated from the ratio of kd over ka. For affinity ranking, twenty-five humanized antibodies plus chimericantibody were injected and captured on sensor chip individually. The antibodies were ranked based on their dissociation rates (kd).

| Binder | koff [s⁻¹] |
| --- | --- |
| VH2 + VL5 (antibody, V domains shown, Humanized IgG expressed in HEK293; also called humanized antibody VH2+VL5) VH: QVQLVQSGAEVKKPGASVKVSCKASGYAFSNFWMNWVRQAPGQGLEWMGQIYPGDGDTNYNGKFKGRVTMTRDTSTSTVYMELSSLRSEDTAVYYCARSYYRSAWFAYWGQGTLVTVSS VL: DIVMTQSPSLLSASTGDRVTISCRASQSIGTSIHWYQQKPGKAPELLIYYASESISGVPSRFSGSGSGTDFTLTISCLQSEDFATYYCQQSNNWPLTFGQGTKVEIK | 0.0193 |
| VH1 + VL5 (antibody, V domains shown, Humanized IgG expressed in HEK293; also called humanized antibody VH1+VL5) VH: QVQLVQSGAEVKKPGSSVKVSCKASGYAFSNFWMNWVRQAPGQGLEWMGQIYPGDGDTNYNGKFKGRVTITADKSTSTAYMELSSLRSEDTAVYYCARSYYRSAWFAYWGQGTLVTVSS VL: DIVMTQSPSLLSASTGDRVTISCRASQSIGTSIHWYQQKPGKAPELLIYYASESISGVPSRFSGSGSGTDFTLTISCLQSEDFATYYCQQSNNWPLTFGQGTKVEIK | 0.0302 |
| VH4 + VL5 (antibody, V domains shown, Humanized IgG expressed in HEK293; also called humanized antibody VH4+VL5) VH: QVQLVQSGAEVKKPGATVKISCKVSGYAFSNFWMNWVQQAPGKGLEWMGQIYPGDGDTNYNGKFKGRVTITADTSTDTAYMELSSLRSEDTAVYYCARSYYRSAWFAYWGQGTLVTVSR VL: DIVMTQSPSLLSASTGDRVTISCRASQSIGTSIHWYQQKPGKAPELLIYYASESISGVPSRFSGSGSGTDFTLTISCLQSEDFATYYCQQSNNWPLTFGQGTKVEIK | 0.0578 |
| VH3 + VL5 (antibody, V domains shown, Humanized IgG expressed in HEK293; also called humanized antibody VH3+VL5) VH: QVQLVQSGAEVKKPGASVKVSCKASGYAFSNFWMNWVRQAPGQGLEWMGQIYPGDGDTNYNGKFKGRVTMTRDTSISTAYMELSRLRSDDTAVYYCARSYYRSAWFAYWGQGTLVTVSS VL: DIVMTQSPSLLSASTGDRVTISCRASQSIGTSIHWYQQKPGKAPELLIYYASESISGVPSRFSGSGSGTDFTLTISCLQSEDFATYYCQQSNNWPLTFGQGTKVEIK | 0.023 |
| VH4 + VL4 (antibody, V domains shown, Humanized IgG expressed in HEK293; also called humanized antibody VH4+VL4) VH: QVQLVQSGAEVKKPGATVKISCKVSGYAFSNFWMNWVQQAPGKGLEWMGQIYPGDGDTNYNGKFKGRVTITADTSTDTAYMELSSLRSEDTAVYYCARSYYRSAWFAYWGQGTLVTVSR VL: AIQLTQSPSSLSASVGDRVTITCRASQSIGTSIHWYQQKPGKAPKLLIYYASESISGVPSRFSGSGSGTDFTLTISSLQPEDFATYYCQQSNNWPLTFGGGTKVEIK | 0.0243 |
| VH5 + VL2 (antibody, V domains shown, Humanized IgG expressed in HEK293; also called humanized antibody VH5+VL2) VH: EVQLVQSGAEVKKPGESLKISCKGSGYAFSNFWMNWVRQMPGKGLEWMGQIYPGDGDTNYNGKFKGQVTISADKSISTAYLQWSSLKASDTAMYYCARSYYRSAWFAYWGQGTLVTVSL VL: EIVMTQSPATLSVSPGERATLSCRASQSIGTSIHWYQQKPGQAPRLLIYYASESISGIPARFSGSGSGTEFTLTISSLQSEDFAVYYCQQSNNWPLTFGGGTKVEIK | 0.0228 |
| VH4 + VL2 (antibody, V domains shown, Humanized IgG expressed in HEK293; also called humanized antibody VH4+VL2) VH: QVQLVQSGAEVKKPGATVKISCKVSGYAFSNFWMNWVQQAPGKGLEWMGQIYPGDGDTNYNGKFKGRVTITADTSTDTAYMELSSLRSEDTAVYYCARSYYRSAWFAYWGQGTLVTVSR VL: EIVMTQSPATLSVSPGERATLSCRASQSIGTSIHWYQQKPGQAPRLLIYYASESISGIPARFSGSGSGTEFTLTISSLQSEDFAVYYCQQSNNWPLTFGGGTKVEIK | 0.0315 |
| VH4 + VL3 (antibody, V domains shown, Humanized IgG expressed in HEK293; also called humanized antibody VH4+VL3) VH: QVQLVQSGAEVKKPGATVKISCKVSGYAFSNFWMNWVQQAPGKGLEWMGQIYPGDGDTNYNGKFKGRVTITADTSTDTAYMELSSLRSEDTAVYYCARSYYRSAWFAYWGQGTLVTVSR VL: EIVLTQSPATLSLSPGERATLSCRASQSIGTSIHWYQQKPGQAPRLLIYYASESISGIPARFSGSGSGTDFTLTISSLEPEDFAVYYCQQSNNWPLTFGGGTKVEIK | 0.0237 |
| VH3 + VL2 (antibody, V domains shown, Humanized IgG expressed in HEK293; also called humanized antibody VH3+VL2) VH: QVQLVQSGAEVKKPGASVKVSCKASGYAFSNFWMNWVRQAPGQGLEWMGQIYPGDGDTNYNGKFKGRVTMTRDTSISTAYMELSRLRSDDTAVYYCARSYYRSAWFAYWGQGTLVTVSS VL: EIVMTQSPATLSVSPGERATLSCRASQSIGTSIHWYQQKPGQAPRLLIYYASESISGIPARFSGSGSGTEFTLTISSLQSEDFAVYYCQQSNNWPLTFGGGTKVEIK | 0.0195 |
| VH1 + VL3 (antibody, V domains shown, Humanized IgG expressed in HEK293; also called humanized antibody VH1+VL3) VH: QVQLVQSGAEVKKPGSSVKVSCKASGYAFSNFWMNWVRQAPGQGLEWMGQIYPGDGDTNYNGKFKGRVTITADKSTSTAYMELSSLRSEDTAVYYCARSYYRSAWFAYWGQGTLVTVSS VL: EIVLTQSPATLSLSPGERATLSCRASQSIGTSIHWYQQKPGQAPRLLIYYASESISGIPARFSGSGSGTDFTLTISSLEPEDFAVYYCQQSNNWPLTFGGGTKVEIK | 0.0225 |
| VH5 + VL5 (antibody, V domains shown, Humanized IgG expressed in HEK293; also called humanized antibody VH5+VL5) VH: EVQLVQSGAEVKKPGESLKISCKGSGYAFSNFWMNWVRQMPGKGLEWMGQIYPGDGDTNYNGKFKGQVTISADKSISTAYLQWSSLKASDTAMYYCARSYYRSAWFAYWGQGTLVTVSL VL: DIVMTQSPSLLSASTGDRVTISCRASQSIGTSIHWYQQKPGKAPELLIYYASESISGVPSRFSGSGSGTDFTLTISCLQSEDFATYYCQQSNNWPLTFGQGTKVEIK | 0.0207 |
| VH2 + VL2 (antibody, V domains shown, Humanized IgG expressed in HEK293; also called humanized antibody VH2+VL2) VH: QVQLVQSGAEVKKPGASVKVSCKASGYAFSNFWMNWVRQAPGQGLEWMGQIYPGDGDTNYNGKFKGRVTMTRDTSTSTVYMELSSLRSEDTAVYYCARSYYRSAWFAYWGQGTLVTVSS VL: EIVMTQSPATLSVSPGERATLSCRASQSIGTSIHWYQQKPGQAPRLLIYYASESISGIPARFSGSGSGTEFTLTISSLQSEDFAVYYCQQSNNWPLTFGGGTKVEIK | 0.0166 |
| VH1 + VL2 (antibody, V domains shown, Humanized IgG expressed in HEK293; also called humanized antibody VH1+VL2) VH: QVQLVQSGAEVKKPGSSVKVSCKASGYAFSNFWMNWVRQAPGQGLEWMGQIYPGDGDTNYNGKFKGRVTITADKSTSTAYMELSSLRSEDTAVYYCARSYYRSAWFAYWGQGTLVTVSS VL: EIVMTQSPATLSVSPGERATLSCRASQSIGTSIHWYQQKPGQAPRLLIYYASESISGIPARFSGSGSGTEFTLTISSLQSEDFAVYYCQQSNNWPLTFGGGTKVEIK | 0.0294 |
